# Reference: US20180318438A1, “ANTIBODY DRUG CONJUGATES OF KINESIN SPINDEL PROTEIN (KSP) INHIBITORS WITH ANTI-TWEAKR-ANTIBODIES” (Bayer Pharma Aktiengesellschaft, priority 2015, published 2018)
# T1: TPP-2305, hTNFRSF12 amino acids 28-80 (extracellular domain of TWEAKR) (human, UniProt Q9NP84 28-80)
# T1 construct: Bought recombinant antigen (Fitzgerald 30R-AT080); also called TWEAKR extracellular domain; 30R-AT080 (Fitzgerald)
# T1 sequence: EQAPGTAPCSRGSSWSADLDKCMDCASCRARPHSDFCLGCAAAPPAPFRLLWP
# T2: TWEAKR on human cells (NCI-H292, 786-O, A498, SK-HEP-1, HEK293) (human, UniProt Q9NP84 28-129)
# T2 sequence: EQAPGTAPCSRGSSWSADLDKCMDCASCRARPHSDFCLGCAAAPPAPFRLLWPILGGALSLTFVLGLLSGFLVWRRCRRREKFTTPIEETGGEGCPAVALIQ
# Tests used:
# [1] = test system: KPL4: human breast cancer cell line; test: Cytotoxicity, MTT assay; type: cell-based; settings: KPL4, 96 h, metabolites, KPL4 cells
# Procedure: The cells were cultivated according to the standard method using the growth media listed under C-1. The test is carried out by detaching the cells with a solution of Accutase in PBS (Biochrom AG #L2143), pelleting, resuspending in culture medium, counting and sowing into a 96-well culture plate with white bottom (Costar #3610) (NCI H292: 2500 cells/well, KPL-4: 1200 cells/well, SK-HEP-1: 1500 cells/well in a total volume of 100 μl). The cells were then incubated in an incubator at 37° C. and 5% carbon dioxide. After 48 h, the medium was replaced. The metabolites in 10 μl of culture medium in concentrations from 10^−5M to 10^−13M were then pipetted to the cells (in triplicate), and the assay was then incubated in an incubator at 37° C. and 5% carbon dioxide. […] To this end, the MTT reagent was incubated with the cells for 4 h, followed by lysis of the cells overnight by addition of the detergent. The dye formed was detected at 570 nm (Infinite M1000 pro, Tec an). The measured data were used to calculate the IC50 of the growth inhibition using the DRC (dose response curve). The proliferation of cells which were not treated with test substance but were otherwise identically treated was defined as the 100% figure.
# [2] = test system: NCI-H292: human mucoepidermoid lung carcinoma cells; test: Cytotoxicity, MTT assay; type: cell-based; settings: NCI-H292, 96 h, metabolites
# Procedure: The cells were cultivated according to the standard method using the growth media listed under C-1. […] The cells were then incubated in an incubator at 37° C. and 5% carbon dioxide. […] To this end, the MTT reagent was incubated with the cells for 4 h, followed by lysis of the cells overnight by addition of the detergent. […] The measured data were used to calculate the IC50 of the growth inhibition using the DRC (dose response curve). The proliferation of cells which were not treated with test substance but were otherwise identically treated was defined as the 100% figure.
# [3] = test system: Caco-2 cells; test: Cell permeability, flux assay using Caco-2 cells; settings: basal to apical, 2 h
# [4] = target: T1, TPP-2305, hTNFRSF12 amino acids 28-80 …; test: SPR (Biacore T200), antibody captured by anti-human Fc on CM5, TWEAKR extracellular domain 3.9-500 nM as analyte, 25 C; monovalent KD
# [5] = target: T2, TWEAKR on human cells (NCI-H292, 786-O, …); test: cell-based or functional assay
# [6] = target: T2, TWEAKR on human cells (NCI-H292, 786-O, …); test: flow cytometry on SK-HEP-1 cells, dose curve from 10 ug/ml in 1:5 steps, anti-kappa-FITC secondary
# [7] = target: T2, TWEAKR on human cells (NCI-H292, 786-O, …); test: flow cytometry on NCI-H292 cells, dose curve from 10 ug/ml in 1:5 steps, anti-kappa-FITC secondary
# [8] = target: T1, TPP-2305, hTNFRSF12 amino acids 28-80 …; test: SPR (Biacore T200), antibody captured by anti-human Fc on CM5, TWEAKR extracellular domain 3.9-500 nM as analyte, 25 C
Molecule,Kd [4] [nM],"Agonistic activity [%] of the TWEAK-ind. agonism (NF-kappaB reporter gene assay, HEK293) [5] [%]",EC50 [6] [nM],EC50 [7] [nM],also measured
"CC(C)(C)[C@H](c1cc(-c2cc(F)ccc2F)cn1Cc1ccccc1)N(CC[C@H](N)C(=O)NCCNC(=O)CNC(=O)CC(SC[C@H](N)C(=O)O)C(=O)O)C(=O)CO (stereo partly drawn) [Example M13, 4-[(2-{[2-({(2S)-2-Amino-4-[{(1R)-1-[1-benzyl-4-(2,5-difluorophenyl)-1H-pyrrol-2-yl]-2,2-dimethylpropyl}(glycoloyl)amino]butanoyl}amino)ethyl]amino}-2-oxoethyl)amino]-2-{[(2R)-2-amino-2-carboxyethyl]sulphanyl}-4-oxobutanoic acid/trifluoroacetic acid (1:1)]",,,,,IC50 [1]: 169 nM; IC50 [2]: 152 nM
"CC(C)(C)[C@H](c1cc(-c2cc(F)ccc2F)cn1Cc1ccccc1)N(CC[C@H](N)C(=O)NCCNC(=O)CNC(=O)CC(SC[C@H](N)C(=O)O)C(=O)O)C(=O)CO.O=C(O)C(F)(F)F (stereo partly drawn) [Example M26, 4-[(2-{[2-({(2S)-2-Amino-4-[{(1R)-1-[1-benzyl-4-(2,5-difluorophenyl)-1H-pyrrol-2-yl]-2,2-dimethylpropyl}(glycoloyl)amino]butanoyl}amino)ethyl]amino}-2-oxoethyl)amino]-2-{[(2R)-2-amino-2-carboxyethyl]sulphanyl}-4-oxobutanoic acid/trifluoro acetic acid (1:1)]",,,,,Papp (B-A) [3]: 13.0 nm/s
"CC(C)(C)[C@H](c1cc(-c2cc(F)ccc2F)cn1Cc1ccccc1)N(CC[C@H](N)C(=O)N[C@H](CCC(=O)O)C(=O)O)C(=O)CO.O=C(O)C(F)(F)F [Example M25, N-{(2S)-2-Amino-4-[{(1R)-1-[1-benzyl-4-(2,5-difluorophenyl)-1H-pyrrol-2-yl]-2,2-dimethylpropyl}(glycoloyl)amino]butanoyl}-L-glutamic acid/trifluoroacetic acid (1:1)]",,,,,Papp (B-A) [3]: 8.1 nm/s
"ITEM-4 (antibody, V domains shown, Murine IgG2b, bought (eBioscience 13-9018); also called anti-TWEAKR AK1A; AK1A) VH: QVQLQQSGPELVKPGASVKMSCKASGYTFTDFIIAWVKQRTGQGLEWIGEIYPGTGRTYYSEKFRGKATLTADKSSNTAYMQLSSLTSVDSAVYFCARRTIYYDYDGDYWGQGTTLTVSS VL: DIVMTQAAFSNPVTLGTSASISCRSSKSLLHSNGITYLYWYLQKPGQSPQLLIYQMSNLASGVPDRFSSSGSGTDFTLRISRVEAEDVGVYYCAHNLELPWTFGGGTKLELK",0.7,14,,,
"TPP-7007 (antibody, human IgG1, kappa, V domains shown, also called anti-TWEAKR AK1D; AK1D) VH: QVQLVQSGAEVKKPGASVKVSCKASGYTFTDFIIAWVKQAPGQGLEWIGEIYPGTGRTYYSEKFRGKATLTADTSTSTAYMELSSLRSEDTAVYFCARRTIYYDYDGDYWGQGTLVTVSS VL: DIVMTQSPLSLPVTPGEPASISCRSSKSLLHSNGITYLYWYLQKPGQSPQLLIYQMSNLASGVPDRFSGSGSGTDFTLKISRVEAEDVGVYYCAHNLELPWTFGQGTKVEIKR",1.4,4,0.9,0.8,
"TPP-7005 (antibody, human IgG1, kappa, V domains shown, also called anti-TWEAKR AK1B; AK1B) VH: QVQLVQSGAEVKKPGASVKISCKVSGYTFTDFIIAWVKQAPGKGLEWIGEIYPGTGRTYYSEKFRGKATLTADKSTSTAYMELSSLRSEDTAVYYCARRTIYYDYDGDYWGQGTTVTVSS VL: DIVMTQSPLSLPVTPGEPASISCRSSKSLLHSNGITYLYWYLQKPGQSPQLLIYQMSNLASGVPDRFSSSGSGTDFTLKISRVEAEDVGVYYCAHNLELPWTFGGGTKVEIKR",0.26,0.1,0.54,0.5,koff [8]: 0.0018 s⁻¹; kon [8]: 6.8e+06 M⁻¹ s⁻¹; Antagonistic activity IC50 [M] (NF-kappaB reporter gene assay in the presence of Tweak 200 ng/ml) [5]: 2e-11 M
"TPP-7075 (antibody, human IgG1, kappa, V domains shown) VH: QVQLVQSGAEVKKPGASVKVSCKASGYTFTDFIIAWVKQAPGQGLEWIGEIYPGTGRTYYSEKFRGKATLTADTSTSTAYMELSSLRSEDTAVYFCARRTIYYDYDGDYWGQGTLVTVSS VL: DIVMTQSPLSLPVTPGEPASISCRSSKSLLHSSGITYLYWYLQKPGQSPQLLIYQMSNLASGVPDRFSGSGSGTDFTLKISRVEAEDVGVYYCAHNLELPWTFGQGTKVEIKR",6,15,,8.9,Antagonistic activity IC50 [M] (NF-kappaB reporter gene assay in the presence of Tweak 200 ng/ml) [5]: 2.4e-08 M
"TPP-7006 (antibody, human IgG1, kappa, V domains shown, also called anti-TWEAKR AK1C; AK1C) VH: QVQLQQSGPELVKPGASVKMSCKASGYTFTDFIIAWVKQRTGQGLEWIGEIYPGTGRTYYSEKFRGKATLTADKSSNTAYMQLSSLTSVDSAVYFCARRTIYYDYDGDYWGQGTTLTVSS VL: DIVMTQAAFSNPVTLGTSASISCRSSKSLLHSNGITYLYWYLQKPGQSPQLLIYQMSNLASGVPDRFSSSGSGTDFTLRISRVEAEDVGVYYCAHNLELPWTFGGGTKLELKR",0.33,3,0.83,0.54,
